Experimental findings from patent US20110002926A1 (MEDICAL RESEARCH COUNCIL, published 2011) are described below.

The target of assay [1] is HCV E1E2 glycoproteins of genotype 1b (Con1) (Hepatitis C virus genotype 1b (Con1), UniProt Q9WMX2 384-746; Q9WMX2 192-383). Kind of assay: cell-based or functional assay.
Assay [2] concerns the target HCV E1E2 glycoproteins of genotype 2a (J6) (Hepatitis C virus genotype 2a (J6), UniProt P26660 384-750; P26660 192-383). Kind of assay: cell-based or functional assay.
In assay [3] the target is HCV E1E2 glycoproteins of genotype 2a JFH1 on HCVpp (Hepatitis C virus genotype 2a, UniProt Q99IB8 384-750; Q99IB8 192-383). Kind of assay: cell-based or functional assay.
Assay [4] deals with HCV E1E2 glycoproteins of genotype 3a F4/2-35 on HCVpp (Hepatitis C virus genotype 3a). Kind of assay: cell-based or functional assay.
Assay [5] has as its target HCV E1E2 glycoproteins of isolate 2A2.4 on HCVpp (Hepatitis C virus genotype 2). Kind of assay: cell-based or functional assay.
In assay [6] the target is HCV E1E2 glycoproteins of isolate 4.21.16 on HCVpp (Hepatitis C virus genotype 4). The experiment in a line: cell-based or functional assay.
Assay [7] concerns the target HCV E1E2 glycoproteins of isolate 6.5.8 on HCVpp (Hepatitis C virus genotype 6). The experiment in a line: cell-based or functional assay.
In assay [8] the target is HCV E1E2 glycoproteins of isolate 1A20.8 on HCVpp (Hepatitis C virus genotype 1). Kind of assay: cell-based or functional assay.
For assay [9], the target named is HCV E1E2 glycoproteins of isolate 1B5.23 on HCVpp (Hepatitis C virus genotype 1). Kind of assay: cell-based or functional assay.
In assay [10] the target is HCV E1E2 glycoproteins of isolate 2B1.1 on HCVpp (Hepatitis C virus genotype 2). Kind of assay: cell-based or functional assay.
In assay [11] the target is HCV E1E2 glycoproteins of isolate 5.15.11 on HCVpp (Hepatitis C virus genotype 5). Kind of assay: cell-based or functional assay.
Assay [12] deals with T1, soluble HCV E2 (sE2661), HIS-tagged, baculovirus expressed (Hepatitis C virus (genotype )).
T1 construct: extracellular domain; also called soluble E2
The experiment in a line: BIAcore SPR, antibody captured on anti-human Fc chip, sE2 1.56-50 nM injected, 1:1 Langmuir fit. Background: Surface plasmon resonance follows binding to a sensor surface in real time, without labels.

Assay [13] deals with T2, HCV E2 as part of the E1E2 heterodimer expressed on the surface of 293T cells (Hepatitis C virus (genotype )).
T2 construct: whole, on cells; also called E1E2 Scatchard; cell surface expressed E2
Kind of assay: Scatchard analysis, 125I-antibody competition with unlabeled antibody on E1E2-transfected 293T cells.

Chain of HCV E1E2 glycoproteins of genotype 2a JFH1 on HCVpp (Q99IB8 384-750 limits assumed, chain 1 of 2): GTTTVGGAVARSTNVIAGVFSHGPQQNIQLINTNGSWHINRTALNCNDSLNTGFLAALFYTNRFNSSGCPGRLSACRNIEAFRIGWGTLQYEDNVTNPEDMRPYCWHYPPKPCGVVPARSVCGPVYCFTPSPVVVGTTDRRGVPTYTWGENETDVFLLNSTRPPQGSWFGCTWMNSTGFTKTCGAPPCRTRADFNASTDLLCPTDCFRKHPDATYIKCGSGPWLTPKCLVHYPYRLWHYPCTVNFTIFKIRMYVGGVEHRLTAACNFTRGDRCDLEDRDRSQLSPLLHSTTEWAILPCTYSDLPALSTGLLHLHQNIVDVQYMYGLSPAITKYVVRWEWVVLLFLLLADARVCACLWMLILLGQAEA
Chain of HCV E1E2 glycoproteins of genotype 2a JFH1 on HCVpp (Q99IB8 192-383 limits assumed, chain 2 of 2): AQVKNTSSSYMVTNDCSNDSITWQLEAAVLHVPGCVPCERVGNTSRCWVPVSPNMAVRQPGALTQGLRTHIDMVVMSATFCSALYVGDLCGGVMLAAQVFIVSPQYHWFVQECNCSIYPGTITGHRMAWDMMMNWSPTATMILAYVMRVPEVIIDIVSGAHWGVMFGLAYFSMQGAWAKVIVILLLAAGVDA
Chain of HCV E1E2 glycoproteins of genotype 1b (Con1) (Q9WMX2 384-746 limits assumed, chain 1 of 2): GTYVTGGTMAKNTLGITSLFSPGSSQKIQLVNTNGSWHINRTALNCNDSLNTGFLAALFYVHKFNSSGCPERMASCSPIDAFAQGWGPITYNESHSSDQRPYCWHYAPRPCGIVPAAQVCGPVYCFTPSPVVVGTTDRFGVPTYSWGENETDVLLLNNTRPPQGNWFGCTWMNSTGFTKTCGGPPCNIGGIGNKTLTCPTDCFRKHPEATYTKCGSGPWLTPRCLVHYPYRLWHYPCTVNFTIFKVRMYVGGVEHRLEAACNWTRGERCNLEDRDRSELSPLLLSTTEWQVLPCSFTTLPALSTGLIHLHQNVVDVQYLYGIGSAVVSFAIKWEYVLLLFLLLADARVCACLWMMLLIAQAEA
Chain of HCV E1E2 glycoproteins of genotype 1b (Con1) (Q9WMX2 192-383 limits assumed, chain 2 of 2): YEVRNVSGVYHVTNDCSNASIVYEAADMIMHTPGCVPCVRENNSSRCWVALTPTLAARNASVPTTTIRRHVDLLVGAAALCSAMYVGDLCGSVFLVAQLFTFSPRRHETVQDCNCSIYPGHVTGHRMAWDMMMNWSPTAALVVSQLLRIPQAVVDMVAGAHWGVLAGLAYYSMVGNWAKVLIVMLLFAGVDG

B1: humanized AP33 antibody RH-C/RK2b (antibody, V domains shown)
VH: QVQLQESGPGLVKPSETLSLTCTVSGDSITSGYWNWIRQPPGRALEWMGYISYSGSTYYNLSLRSRITISRDTSKNQYSLRLSSVTAADTAMYYCALITTTTYAMDYWGQGTTVTVSS
VL: EIVLTQSPSSLSASVGDRVTITCRASESVDGYGNSFLHWFQQKPGKAPKLLIYLASNLNSGVPSRFSGSGSGTDFTLTISSLQPEDFATYYCQQNNVDPWTFGQGTKLEIK
notes: also called RH-C antibody
What is called Kd is the equilibrium constant for the complex coming apart. Turning to B1, the “EC50 of HCVpp entry into Huh-7.5 cells (luciferase)” value was found to be 0.511 µg/mL in [1] and 0.793 µg/mL in assay [2]. The “neutralization of HCVcc infection of Huh-7.5 cells (RT-qPCR), fold against AP33” value in assay [2] is ≥ 4.7 fold. The “IC50 of HCVpp infection of Huh-7 cells (luciferase)” value was 0.64 µg/mL in assay [3]; < 0.41 µg/mL in assay [4]; 0.51 µg/mL in assay [5]; < 0.41 µg/mL in assay [6]; < 0.41 µg/mL in assay [7]; 1.6 µg/mL in [8]. For the same molecule, the “IC50 of HCVpp infection of Huh-7 cells (luciferase)” value worked out at 0.9 µg/mL in assay [9], 3 µg/mL in assay [10] and 0.053 µg/mL in [11]. Further, the “IC90 of HCVpp infection of Huh-7 cells (luciferase)” value in assay [3] stood at 7 µg/mL; in [4] it was 2.15 µg/mL; in assay [5], 6 µg/mL; in assay [6], 0.92 µg/mL; in [7] it was 1.8 µg/mL; in assay [8], 15 µg/mL. Also, the “IC90 of HCVpp infection of Huh-7 cells (luciferase)” value in assay [9] is 8.3 µg/mL; in [10], > 15 µg/mL; in [11] it was 0.82 µg/mL. Moreover, the figures for the dissociation constant Kd in assay [12] and in assay [13] were 3.8 nM and 5 nM, respectively.
